The text below walks through data of publication PMC10019796.

A value given as a limit tells only on which side of the number the result lay.

This test concerns the target mtDsbC-SARS-CoV-2 RBD Alpha variant (B.1.1.7) fusion protein (SARS-CoV-2) (UniProt P0DTC2). Briefly: BLI; biotinylated mtDsbC-RBD (20 µg/mL) immobilised on streptavidin (SA) biosensors, Fabs as analytes at three nanomolar concentrations; Octet RED384, 30 °C, 1000 rpm, 1 × PBS Kinetics Buffer; 1:1 interaction model, global fit. A general note: BLI is a label-free optical method that tracks binding on a fibre tip over time.

A word on the Kd: it is the concentration at which binding is half-saturated. Low readings indicate a tighter complex, high ones a looser complex. REGN10987 (L93Q) Fab gave a Kd of more than 1000 nM.
